In patent US20240117030A1 (Pfizer, published 2024):

T1: recombinant human IL-33 (R&D Systems 3625-IL), reduced with DTT (human, UniProt O95760 112-270, limits assumed)
T1 sequence (looked up): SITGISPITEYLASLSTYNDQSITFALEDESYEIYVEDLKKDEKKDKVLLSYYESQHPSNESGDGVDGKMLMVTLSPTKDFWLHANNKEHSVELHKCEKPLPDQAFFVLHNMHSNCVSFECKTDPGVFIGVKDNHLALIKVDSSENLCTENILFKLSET


Experiments:
human TSLP (long form) = biological target: T2, human TSLP (long form) (human, UniProt Q969D9 29-159, Biotinylated on the Avi tag in some assays; glycosylated (Expi293F expression)); test: bridging sandwich ELISA: human TSLP coated, Tri-Fab-Fc titrated, IL-13-FLAG added, detected with HRP anti-FLAG (OD450nm)
T2 construct: biotinylated in some assays; also called lfhTSLP; hTSLP
Experimental: For this method, 25 μL/well of 1 μg/mL recombinant human TSLP (in PBS pH7.2) was coated onto a 384-well clear flat bottom Maxisorp plates (NUNC) overnight at 4° C. and blocked with PBS without Mg²⁺ and Ca²⁺ with 3% BSA. Serially diluted Tri-Fab-Fc variants were added to the plates and incubated for 1 hour at room temperature (RT). After washing away the unbound Tri-Fab-Fc by washing with buffer (PBS without Mg²⁺ and Ca²⁺ with 0.05% tween 20), 25 μL/well of 100 ng/mL IL-13-FLAG (Pfizer Inc) was added to the plates and incubated at RT for one hour. The Tri-Fab-Fc bound to both TSLP and IL-13 was detected by HRP conjugated anti-FLAG secondary antibody (Sigma, Cat #A8592).

human IL-13 [1] = biological target: T3, human IL-13 (human, UniProt P35225 35-146); test: cell-based or functional assay
human IL-13 [2] = biological target: T3, human IL-13; test: SPR 37°C, antibody captured by anti-human IgG, human IL-13 1.56-50 nM
Experimental: The affinity values (KD) were determined using Surface Plasmon Resonance (SPR) for 10 lead variants identified from bioassay screening.

[3] = biological target: T1, recombinant human IL-33 (R&D Systems …); test: cell-based or functional assay

T3 sequence (P35225 35-146 limits assumed, form in doubt): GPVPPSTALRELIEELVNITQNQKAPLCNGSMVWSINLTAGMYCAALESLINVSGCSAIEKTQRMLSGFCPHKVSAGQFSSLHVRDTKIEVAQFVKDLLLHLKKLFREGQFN

EC50 (read off the curve) (human TSLP (long form)) [nM] | CD23: Fold versus IL13-0001 (human IL-13 [1]) [fold] | CD23 IC50 [pM] Ave. n = 2 (human IL-13 [1]) [pM] | Kd (human IL-13 [2]) [nM] | IC50 [nM] versus reduced human IL-33 (R&D), IC50 (AVE) [3] [nM] | Binder
~0.5 |  |  |  |  | IL413TSLP-0002 (trispecific antibody, human IgG1, kappa, lambda) heavy: EVQLVESGGGLVQPGGSLRLSCAASGFTFSSYAMSWVRQAPGKGLEWVASISSGDTTYYPDSVKGRFTISRDNAKNSLYLQMNSLRAEDTAVYYCARNEGYYFGLTLWGQGTLVTVSSASTKGPSVFPKAPSSKSTSGGTAALGCLVKDYFPEPVTVSWNSGALTSGVHTFPAVLQSSGLYSLSSSVTVPSSSLGTQTYICNVNHKPSNTKVDKKVEPKSCDKTHTCPPCPAPEAAGAPSVFLFPPKPKDTLMISRTPEVTCVVVDVSHEDPEVKFNWYVDGVEVHNAKTKPREEQYNSTYRVVSVLTVLHQDWLNGKEYKCKVSNKALPAPIEKTISKAKGQPREPQVCTLPPSREEMTKNQVSLWCLVKGFYPSDIAVEWESNGQPENNYKTTPPVLDSDGSFFLYSKLTVDKSRWQQGNVFSCSVMHEALHNHYTQKSLSLSPGK chain 1: QMQLVESGGGVVQPGRSLRLSCAASGFTFRTYGMHWVRQAPGKGLEWVAVIWYDGSNKHYADSVKGRFTITRDNSKNTLNLQMNSLRAEDTAVYYCARAPQWELVHEAFDIWGQGTMVTVSSGQPKAAPSVTLFPPSSEELQANKATLVCLISDFYPGAVTVAWKADSSPVKAGVETTTPSKQSNNKYAASSYLSLTPEQWKSHRSYSCQVTHEGSTVEKTVAPTECSGGGGSEVTLRESGPALVKPTQTLTLTCTFSGFSLSNFGEGLSWIRQPPGKGLEWLAHIYWDDDKRYNPSLKSRLTISKDTSRNQVVLTMTNMDPVDTATYYCARRETVFYWYFDVWGQGTTVTVSSASTKGPSVFPEAPSSKSTSGGTAALGCLVKDYFPEPVTVSWNSGALTSGVHTFPAVLQSSGLYSLGSVVTVPSSSLGTQTYICNVNHKPSNTKVDKKVEPKSCDKTHTCPPCPAPEAAGAPSVFLFPPKPKDTLMISRTPEVTCVVVDVSHEDPEVKFNWYVDGVEVHNAKTKPREEQYNSTYRVVSVLTVLHQDWLNGKEYKCKVSNKALPAPIEKTISKAKGQPREPQVYTLPPCREEMTKNQVSLSCAVKGFYPSDIAVEWESNGQPENNYKTTPPVLDSDGSFFLVSKLTVDKSRWQQGNVFSCSVMHEALHNHYTQKSLSLSPGK light 1: DIQMTQSPSSLSASVGDRVTITCKASESVDHFGWSLVHWYQQKPGKAPKLLIYRASNLESGVPSRFSGSGSGTDFTLTISSLQPEDFATYYCQQSNEDPWTFGGGTKVEIKRTVAAPSVFIFPPSDEQLKSGTASVSCLLNNFYPREAKVQWKVDNALQSGNSQESVTEQDSKDSTYSLDSTLTLSKADYEKHKVYACEVTHQGLSSPVTKSFNRGEC light 2: DIQMTQSPSSLSASVGDRVTITCKASQSVDEDGDSYMNWYQQKPGKAPKLLIYAASNLESGVPSRFSGSGSGTDFTLTISSLQPEDFATYYCQQSNEDPPTFGGGTKVEIKRTVAAPSVFIFPPSDEQLKSGTASVSCLLNNFYPREAKVQWKVDNALQSGNSQESVTEQDSKDSTYSLKSTLTLSKADYEKHKVYACEVTHQGLSSPVTKSFNRGEC chain 2: SYVLTQPPSVSVAPGQTARITCGGNNLGSKSVHWYQQKPGQAPVLVVYDDSDRPSWIPERFSGSNSGNTATLTISRGEAGDEADYYCQVWDSSSDHVVFGGGTKLTVLASTKGPSVFPLAPSSKSTSGGTAALGCLVKDYFPEPVTVSWNSGALTSGVHTFPAVLQSSGLYSLSSVVTVPSSSLGTQTYICNVNHKPSNTKVDKKVEPKSC
~0.6 |  |  |  |  | IL413TSLP-0007 (trispecific antibody, human IgG1, kappa, lambda) heavy: EVTLRESGPALVKPTQTLTLTCTFSGFSLSNFGEGLSWIRQPPGKGLEWLAHIYWDDDKRYNPSLKSRLTISKDTSRNQVVLTMTNMDPVDTATYYCARRETVFYWYFDVWGQGTTVTVSSASTKGPSVFPEAPSSKSTSGGTAALGCLVKDYFPEPVTVSWNSGALTSGVHTFPAVLQSSGLYSLGSVVTVPSSSLGTQTYICNVNHKPSNTKVDKKVEPKSCDKTHTCPPCPAPEAAGAPSVFLFPPKPKDTLMISRTPEVTCVVVDVSHEDPEVKFNWYVDGVEVHNAKTKPREEQYNSTYRVVSVLTVLHQDWLNGKEYKCKVSNKALPAPIEKTISKAKGQPREPQVYTLPPCREEMTKNQVSLSCAVKGFYPSDIAVEWESNGQPENNYKTTPPVLDSDGSFFLVSKLTVDKSRWQQGNVFSCSVMHEALHNHYTQKSLSLSPGK chain 1: SYVLTQPPSVSVAPGQTARITCGGNNLGSKSVHWYQQKPGQAPVLVVYDDSDRPSWIPERFSGSNSGNTATLTISRGEAGDEADYYCQVWDSSSDHVVFGGGTKLTVLASTKGPSVFPLAPSSKSTSGGTAALGCLVKDYFPEPVTVSWNSGALTSGVHTFPAVLQSSGLYSLSSVVTVPSSSLGTQTYICNVNHKPSNTKVDKKVEPKSCGGGGSEVQLVESGGGLVQPGGSLRLSCAASGFTFSSYAMSWVRQAPGKGLEWVASISSGDTTYYPDSVKGRFTISRDNAKNSLYLQMNSLRAEDTAVYYCARNEGYYFGLTLWGQGTLVTVSSASTKGPSVFPKAPSSKSTSGGTAALGCLVKDYFPEPVTVSWNSGALTSGVHTFPAVLQSSGLYSLSSSVTVPSSSLGTQTYICNVNHKPSNTKVDKKVEPKSCDKTHTCPPCPAPEAAGAPSVFLFPPKPKDTLMISRTPEVTCVVVDVSHEDPEVKFNWYVDGVEVHNAKTKPREEQYNSTYRVVSVLTVLHQDWLNGKEYKCKVSNKALPAPIEKTISKAKGQPREPQVCTLPPSREEMTKNQVSLWCLVKGFYPSDIAVEWESNGQPENNYKTTPPVLDSDGSFFLYSKLTVDKSRWQQGNVFSCSVMHEALHNHYTQKSLSLSPGK light 1: DIQMTQSPSSLSASVGDRVTITCKASQSVDEDGDSYMNWYQQKPGKAPKLLIYAASNLESGVPSRFSGSGSGTDFTLTISSLQPEDFATYYCQQSNEDPPTFGGGTKVEIKRTVAAPSVFIFPPSDEQLKSGTASVSCLLNNFYPREAKVQWKVDNALQSGNSQESVTEQDSKDSTYSLKSTLTLSKADYEKHKVYACEVTHQGLSSPVTKSFNRGEC light 2: DIQMTQSPSSLSASVGDRVTITCKASESVDHFGWSLVHWYQQKPGKAPKLLIYRASNLESGVPSRFSGSGSGTDFTLTISSLQPEDFATYYCQQSNEDPWTFGGGTKVEIKRTVAAPSVFIFPPSDEQLKSGTASVSCLLNNFYPREAKVQWKVDNALQSGNSQESVTEQDSKDSTYSLDSTLTLSKADYEKHKVYACEVTHQGLSSPVTKSFNRGEC chain 2: QMQLVESGGGVVQPGRSLRLSCAASGFTFRTYGMHWVRQAPGKGLEWVAVIWYDGSNKHYADSVKGRFTITRDNSKNTLNLQMNSLRAEDTAVYYCARAPQWELVHEAFDIWGQGTMVTVSSGQPKAAPSVTLFPPSSEELQANKATLVCLISDFYPGAVTVAWKADSSPVKAGVETTTPSKQSNNKYAASSYLSLTPEQWKSHRSYSCQVTHEGSTVEKTVAPTECS
 | 0.81 | 7.4 | 0.0717 |  | IL13-0259 (antibody, IgG1, V domains shown, IgG1 effector-null/kappa IgG) VH: EVQLVESGGGLVQPGGSLRLSCAASGFTFSSYAMSWVRQAPGKGLEWVASISTGDTTYYPDSVKGRFTISRDNAKNSLYLQMNSLRAEDTAVYYCARNEGYYFGLTQWGRGTLVTVSS VL: DIQMTQSPSSLSASVGDRVTITCRASQSVDHFGWSLVHWYQQKPGKAPKLLIYRASNLESGVPSRFSGSGSGTDFTLTISSLQPEDFATYYCQQSNEDPWTFGGGTKVEIK
 | 1.01 | 5.9 | 0.0736 |  | IL13-0271 (antibody, IgG1, V domains shown, IgG1 effector-null/kappa IgG; also called IL13433-0271) VH: EVQLVESGGGLVQPGGSLRLSCAASGFTFSSYAMSWVRQAPGKGLEWVASISTGDTTYYPDSVKGRFTISRDNAKNSLYLQMNSLRAEDTAVYYCARNEGYYFGLTQWGRGTLVTVSS VL: DIQMTQSPSSLSASVGDRVTITCRASESVDHFGWSLVHWYQQKPGKAPKLLIYRADSLETGVPSRFSGSGSGTDFTLTISSLQPEDFATYYCQQSNEDPWTFGGGTKVEIK
 | 0.67 | 9 | 0.0932 |  | IL13-0270 (antibody, V domains shown, IgG1 effector-null/kappa IgG; also called IL13433-0270) VH: EVQLVESGGGLVQPGGSLRLSCAASGFTFSSYAMSWVRQAPGKGLEWVASISTGDTTYYPDSVKGRFTISRDNAKNSLYLQMNSLRAEDTAVYYCARNEGYYFGLTLWGQGTLVTVSS VL: DIQMTQSPSSLSASVGDRVTITCRASESVDHFGWSLVHWYQQKPGKAPKLLIYRADSLETGVPSRFSGSGSGTDFTLTISSLQPEDFATYYCQQSNEDPWTFGGGTKVEIK
 |  |  |  | 0.026 | IL33-0721 (antibody, IgG1, V domains shown) VH: EVQLVESGGGLVQPGGSLRLSCAASGFEFSHYWMYWVRQAPGKGLEWVAAITPNAGEDYYPESVKGRFTISRDNAKNSLYLQMNSLRAEDTAVYYCARGYYRYTKYSLGYWGQGTLVTVSS VL: DIQMTQSPSSLSASVGDRVTITCRASQPIHQFLDWYQQKPGKAPKLLIYFGHILQEGVPSRFSGSGSGTDFTLTISSLQPEDFATYYCFQYKQGWSFGGGTKVEIK
